T1: KCTD1 (full-length, residues 1-257) (human), Q719H9
T1 chain: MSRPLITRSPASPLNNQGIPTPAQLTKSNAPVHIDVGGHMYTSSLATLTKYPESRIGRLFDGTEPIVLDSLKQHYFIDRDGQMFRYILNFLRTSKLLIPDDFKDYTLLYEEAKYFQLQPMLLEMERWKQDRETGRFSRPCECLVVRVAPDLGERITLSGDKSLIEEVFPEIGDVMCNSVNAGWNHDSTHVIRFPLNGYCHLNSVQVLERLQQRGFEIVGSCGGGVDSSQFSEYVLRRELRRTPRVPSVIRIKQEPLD


Experiments:
[1] = target: the molecule itself; experiment: SEC; analytical size-exclusion chromatography, Superdex 200 10/30, Tris-HCl 20 mM pH 7.8, NaCl 100 mM, glycerol 5%, CHAPS 0.01%, DTT 4 mM; column calibrated with marker proteins; number of chains from apparent over theoretical monomer molecular weight
[2] = target: T1, KCTD1 (full-length, residues 1-257) …; experiment: as above; details: remark: other sources report otherwise

| Binder | binding result [1] | also measured |
| --- | --- | --- |
| KCTD1 BTB domain (KCTD1^BTB, residues 1-135) (domain or fragment, human, UniProt Q719H9 1-135, looked up, KCTD1, pre-BTB region and BTB domain, residues 1-135; source: E. coli BL21(DE3), purified (His-trap, TEV digestion, Superdex 200); not shown: polyHis, N-terminal, cleaved) MSRPLITRSPASPLNNQGIPTPAQLTKSNAPVHIDVGGHMYTSSLATLTKYPESRIGRLFDGTEPIVLDSLKQHYFIDRDGQMFRYILNFLRTSKLLIPDDFKDYTLLYEEAKYFQLQPMLLEMERWKQDRETGR | – | stoichiometry N [1]: ~4.5 |
| KCTD1 C-terminal domain (KCTD1^CTD, residues 134-235) (domain or fragment, human, UniProt Q719H9 134-235, looked up, KCTD1, C-terminal domain, residues 134-235; The sentences on expression host and on TEV removal of the tag list KCTD1, KCTD1^BTB and the point mutants but not KCTD1^CTD; source: recombinantly expressed (pETM11), purified (Superdex 200)) GRFSRPCECLVVRVAPDLGERITLSGDKSLIEEVFPEIGDVMCNSVNAGWNHDSTHVIRFPLNGYCHLNSVQVLERLQQRGFEIVGSCGGGVDSSQFSEYVL | – | stoichiometry N [1]: ~4.5 |
| KCTD1 (full-length, residues 1-257), Q719H9 1-257 (natural protein) MSRPLITRSPASPLNNQGIPTPAQLTKSNAPVHIDVGGHMYTSSLATLTKYPESRIGRLFDGTEPIVLDSLKQHYFIDRDGQMFRYILNFLRTSKLLIPDDFKDYTLLYEEAKYFQLQPMLLEMERWKQDRETGRFSRPCECLVVRVAPDLGERITLSGDKSLIEEVFPEIGDVMCNSVNAGWNHDSTHVIRFPLNGYCHLNSVQVLERLQQRGFEIVGSCGGGVDSSQFSEYVLRRELRRTPRVPSVIRIKQEPLD | – | stoichiometry N [2]: 4.5 |
| KCTD1^H33P (full-length KCTD1 with the SEN-causing mutation H33P) (natural protein, human, UniProt Q719H9 1-257, looked up, KCTD1, full-length protein, residues 1-257, disease-causing missense variant H33P; the mutation occurs in families with SEN syndrome; also called KCTD^H33P; source: E. coli BL21(DE3), purified (His-trap, TEV digestion, Superdex 200); not shown: polyHis, N-terminal, cleaved) MSRPLITRSPASPLNNQGIPTPAQLTKSNAPVPIDVGGHMYTSSLATLTKYPESRIGRLFDGTEPIVLDSLKQHYFIDRDGQMFRYILNFLRTSKLLIPDDFKDYTLLYEEAKYFQLQPMLLEMERWKQDRETGRFSRPCECLVVRVAPDLGERITLSGDKSLIEEVFPEIGDVMCNSVNAGWNHDSTHVIRFPLNGYCHLNSVQVLERLQQRGFEIVGSCGGGVDSSQFSEYVLRRELRRTPRVPSVIRIKQEPLD | binds | – |
| KCTD1^H74P (full-length KCTD1 with the SEN-causing mutation H74P) (natural protein, human, UniProt Q719H9 1-257, looked up, KCTD1, full-length protein, residues 1-257, disease-causing missense variant H74P; the mutation occurs in families with SEN syndrome; also called KCTD^H74P; source: E. coli BL21(DE3), purified (His-trap, TEV digestion, Superdex 200); not shown: polyHis, N-terminal, cleaved) MSRPLITRSPASPLNNQGIPTPAQLTKSNAPVHIDVGGHMYTSSLATLTKYPESRIGRLFDGTEPIVLDSLKQPYFIDRDGQMFRYILNFLRTSKLLIPDDFKDYTLLYEEAKYFQLQPMLLEMERWKQDRETGRFSRPCECLVVRVAPDLGERITLSGDKSLIEEVFPEIGDVMCNSVNAGWNHDSTHVIRFPLNGYCHLNSVQVLERLQQRGFEIVGSCGGGVDSSQFSEYVLRRELRRTPRVPSVIRIKQEPLD | binds | – |
| KCTD1^G62D (full-length KCTD1 with the SEN-causing mutation G62D) (natural protein, human, UniProt Q719H9 1-257, looked up, KCTD1, full-length protein, residues 1-257, disease-causing missense variant G62D; the mutation occurs in families with SEN syndrome; One sentence of the modelling section prints Gly62Glu; everywhere else G62D; also called KCTD^G62D; source: E. coli BL21(DE3), purified (His-trap, TEV digestion, Superdex 200); not shown: polyHis, N-terminal, cleaved) MSRPLITRSPASPLNNQGIPTPAQLTKSNAPVHIDVGGHMYTSSLATLTKYPESRIGRLFDDTEPIVLDSLKQHYFIDRDGQMFRYILNFLRTSKLLIPDDFKDYTLLYEEAKYFQLQPMLLEMERWKQDRETGRFSRPCECLVVRVAPDLGERITLSGDKSLIEEVFPEIGDVMCNSVNAGWNHDSTHVIRFPLNGYCHLNSVQVLERLQQRGFEIVGSCGGGVDSSQFSEYVLRRELRRTPRVPSVIRIKQEPLD | binds | – |
| KCTD1^D69E (full-length KCTD1 with the SEN-causing mutation D69E) (natural protein, human, UniProt Q719H9 1-257, looked up, KCTD1, full-length protein, residues 1-257, disease-causing missense variant D69E; the mutation occurs in families with SEN syndrome; also called KCTD^D69E; source: E. coli BL21(DE3), purified (His-trap, TEV digestion, Superdex 200); not shown: polyHis, N-terminal, cleaved) MSRPLITRSPASPLNNQGIPTPAQLTKSNAPVHIDVGGHMYTSSLATLTKYPESRIGRLFDGTEPIVLESLKQHYFIDRDGQMFRYILNFLRTSKLLIPDDFKDYTLLYEEAKYFQLQPMLLEMERWKQDRETGRFSRPCECLVVRVAPDLGERITLSGDKSLIEEVFPEIGDVMCNSVNAGWNHDSTHVIRFPLNGYCHLNSVQVLERLQQRGFEIVGSCGGGVDSSQFSEYVLRRELRRTPRVPSVIRIKQEPLD | binds | – |
| KCTD1^P20S (full-length KCTD1 with the SEN-causing mutation P20S) (natural protein, human, UniProt Q719H9 1-257, looked up, KCTD1, full-length protein, residues 1-257, disease-causing missense variant P20S; the mutation occurs in families with SEN syndrome; also called KCTD^P20S; source: E. coli BL21(DE3), purified (His-trap, TEV digestion, Superdex 200); not shown: polyHis, N-terminal, cleaved) MSRPLITRSPASPLNNQGISTPAQLTKSNAPVHIDVGGHMYTSSLATLTKYPESRIGRLFDGTEPIVLDSLKQHYFIDRDGQMFRYILNFLRTSKLLIPDDFKDYTLLYEEAKYFQLQPMLLEMERWKQDRETGRFSRPCECLVVRVAPDLGERITLSGDKSLIEEVFPEIGDVMCNSVNAGWNHDSTHVIRFPLNGYCHLNSVQVLERLQQRGFEIVGSCGGGVDSSQFSEYVLRRELRRTPRVPSVIRIKQEPLD | binds | – |

From article PMC6642198 (Scientific Reports, 2019)
